Measurements reported in US20160130333A1.

Biological target: histones
Assay: ELISA

B1: murine IMMU-H4 antibody (parental murine anti-histone H4 antibody) (antibody, V domains shown)
VH: QVQLQQSGAELVRPGASVKLSCTASGFNIKDDYLHWVKQRPEQGLEWIGWIDPENGDTEYASKFQGKATITADTSSNTAYLQLSSLTSEDTAVYYCSSPLVHLRTFAYWGQGTLVTVS
VL: DIQLTQSPASLAVSLGQRATISCRASESVDSYDNSLHWFQQKPGQPPKLLIYLASNLESGVPARFSGSGSRTDFTLTIDPVEADDAATYYCQQNNEDPWTFGGGTKLEIKR
  Kd: 6.6 nM
